The text below walks through data of patent publication US20220112240.

Data set [1] deals with T1, D-2 FLAG (branched peptide; branching symbol printed as an image).
T1 sequence 1: FFKY
T1 sequence 2: DYKDDDDKG

The test system of data set [2] is T2, L-2 FLAG (branched peptide; branching symbol printed as an image).
T2 sequence 1: XFKY
T2 sequence 2: DYKDDDDKG

As to “enterokinase (ENTK), enzyme added in solution”, the “circular dichroism after ENTK cleavage of the branch” value was “the cleavage of the branch results in largely β-sheet (D-1) and random-coil (FLAG-tag) like secondary structures ... as well as for those of D-2 FLAG and L-2 FLAGs” in data set [1]; “the cleavage of the branch results in largely β-sheet (D-1) and random-coil (FLAG-tag) like secondary structures ... as well as for those of D-2 FLAG and L-2 FLAGs” in data set [2].
